Test results: article doi:10.1101/2020.05.04.070177, “Mechanistic insights into RNA binding and RNA-regulated RIG-I ubiquitination by TRIM25” (bioRxiv, 2020)

Assays:
TRIM25 CC-PRY/SPRY [1] = molecular target: T1, TRIM25 CC-PRY/SPRY (UniProt Q14258 189-630); assay: ITC; highest affinity site; ITC and filter binding: 20 mM MES pH 6.5, 75 mM NaCl, 0.5 mM TCEP (ITC 20 C, filter binding on ice); NMR: 20 mM Na phosphate pH 6.5, 150 mM NaCl, 2 mM TCEP, 293 K; conditions: protein: recombinant; tags: His-Trx (removed); chain copies: 2; hairpin
[2] = molecular target: T2, TRIM25 CC-PRY/SPRY K283A/K285A (UniProt Q14258 189-630, K283A;K285A); assay: ITC; second fitted site; ITC and filter binding: 20 mM MES pH 6.5, 75 mM NaCl, 0.5 mM TCEP (ITC 20 C, filter binding on ice); NMR: 20 mM Na phosphate pH 6.5, 150 mM NaCl, 2 mM TCEP, 293 K; conditions: protein: recombinant; tags: His-Trx (removed); chain copies: 2; hairpin
[3] = molecular target: T3, TRIM25 CC-PRY/SPRY Y463S/Y476S (UniProt Q14258 189-630, Y463S;Y476S); assay: as above; conditions: protein: recombinant; tags: His-Trx (removed); chain copies: 2; hairpin
[4] = molecular target: T4, TRIM25 CC-PRY/SPRY penta-mutant (UniProt Q14258 189-630, K283A;K285A;H505E;K508E;K602E); assay: as above; conditions: protein: recombinant; tags: His-Trx (removed); chain copies: 2; hairpin
TRIM25 CC-PRY/SPRY K602E [5] = molecular target: T5, TRIM25 CC-PRY/SPRY K602E (UniProt Q14258 189-630, K602E); assay: as above; conditions: protein: recombinant; tags: His-Trx (removed); chain copies: 2; hairpin
[6] = molecular target: T6, TRIM25 CC-PRY/SPRY triple mutant (UniProt Q14258 189-630, H505E;K508E;K602E); assay: as above; conditions: protein: recombinant; tags: His-Trx (removed); chain copies: 2; hairpin
[7] = molecular target: T7, TRIM25 CC-PRY/SPRY H505E/K508E (UniProt Q14258 189-630, H505E;K508E); assay: as above; conditions: protein: recombinant; tags: His-Trx (removed); chain copies: 2; hairpin
TRIM25 CC-PRY/SPRY [8] = molecular target: T1, TRIM25 CC-PRY/SPRY; assay: filter binding; ITC and filter binding: 20 mM MES pH 6.5, 75 mM NaCl, 0.5 mM TCEP (ITC 20 C, filter binding on ice); NMR: 20 mM Na phosphate pH 6.5, 150 mM NaCl, 2 mM TCEP, 293 K; conditions: protein: recombinant; tags: His-Trx (removed); chain copies: 2; hairpin
[9] = molecular target: T2, TRIM25 CC-PRY/SPRY K283A/K285A; assay: ITC; first of two fitted sites; ITC and filter binding: 20 mM MES pH 6.5, 75 mM NaCl, 0.5 mM TCEP (ITC 20 C, filter binding on ice); NMR: 20 mM Na phosphate pH 6.5, 150 mM NaCl, 2 mM TCEP, 293 K; conditions: protein: recombinant; tags: His-Trx (removed); chain copies: 2; hairpin
[10] = molecular target: T3, TRIM25 CC-PRY/SPRY Y463S/Y476S; assay: as above; conditions: protein: recombinant; tags: His-Trx (removed); chain copies: 2; hairpin
[11] = molecular target: T4, TRIM25 CC-PRY/SPRY penta-mutant; assay: as above; conditions: protein: recombinant; tags: His-Trx (removed); chain copies: 2; hairpin
TRIM25 CC-PRY/SPRY K602E [12] = molecular target: T5, TRIM25 CC-PRY/SPRY K602E; assay: as above; conditions: protein: recombinant; tags: His-Trx (removed); chain copies: 2; hairpin
[13] = molecular target: T6, TRIM25 CC-PRY/SPRY triple mutant; assay: as above; conditions: protein: recombinant; tags: His-Trx (removed); chain copies: 2; hairpin
[14] = molecular target: T7, TRIM25 CC-PRY/SPRY H505E/K508E; assay: as above; conditions: protein: recombinant; tags: His-Trx (removed); chain copies: 2; hairpin
TRIM25 PRY/SPRY = TRIM25 PRY/SPRY (UniProt Q14258 439-630); assay: ITC; ITC and filter binding: 20 mM MES pH 6.5, 75 mM NaCl, 0.5 mM TCEP (ITC 20 C, filter binding on ice); NMR: 20 mM Na phosphate pH 6.5, 150 mM NaCl, 2 mM TCEP, 293 K; conditions: protein: recombinant; tags: His-Trx (removed); chain copies: 3; hairpin
TRIM25 CC = TRIM25 CC (UniProt Q14258 189-379); assay: as above; conditions: protein: recombinant; tags: His-Trx (removed); chain copies: 2; hairpin
TRIM25 CC, sequence (Q14258 189-379): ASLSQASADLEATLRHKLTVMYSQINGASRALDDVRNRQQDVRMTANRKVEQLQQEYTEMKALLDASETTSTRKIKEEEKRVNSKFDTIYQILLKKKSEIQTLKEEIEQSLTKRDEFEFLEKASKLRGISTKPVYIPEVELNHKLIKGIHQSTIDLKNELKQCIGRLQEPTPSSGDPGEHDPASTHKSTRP

T3 sequence (Q14258 189-630 Y463S/Y476S): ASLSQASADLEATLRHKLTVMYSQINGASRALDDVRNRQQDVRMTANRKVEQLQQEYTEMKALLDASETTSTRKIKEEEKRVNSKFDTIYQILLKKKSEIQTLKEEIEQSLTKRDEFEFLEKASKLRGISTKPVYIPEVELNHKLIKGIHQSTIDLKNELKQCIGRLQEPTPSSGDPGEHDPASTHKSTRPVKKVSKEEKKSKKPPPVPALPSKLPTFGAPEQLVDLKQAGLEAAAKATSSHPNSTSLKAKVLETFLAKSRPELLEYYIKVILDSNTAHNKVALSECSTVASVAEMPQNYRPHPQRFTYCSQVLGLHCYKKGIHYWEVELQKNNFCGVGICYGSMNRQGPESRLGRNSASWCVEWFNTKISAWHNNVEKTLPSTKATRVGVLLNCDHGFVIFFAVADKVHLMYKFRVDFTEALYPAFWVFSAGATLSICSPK
T5 sequence (Q14258 189-630 K602E): as the sequence (Q14258 189-630 Y463S/Y476S) above, with S275Y, S288Y, K414E counted along it
T2 sequence (Q14258 189-630 K283A/K285A): as the sequence (Q14258 189-630 Y463S/Y476S) above, with K95A, K97A, S275Y, S288Y counted along it
T6 sequence (Q14258 189-630 H505E/K508E/K602E): as the sequence (Q14258 189-630 Y463S/Y476S) above, with S275Y, S288Y, H317E, K320E, K414E counted along it
T7 sequence (Q14258 189-630 H505E/K508E): as the sequence (Q14258 189-630 Y463S/Y476S) above, with S275Y, S288Y, H317E, K320E counted along it
T4 sequence (Q14258 189-630 K283A/K285A/H505E/K508E/K602E): as the sequence (Q14258 189-630 Y463S/Y476S) above, with K95A, K97A, S275Y, S288Y, H317E, K320E, K414E counted along it
T1 sequence (Q14258 189-630): as the sequence (Q14258 189-630 Y463S/Y476S) above, with S275Y, S288Y counted along it
TRIM25 PRY/SPRY, sequence (Q14258 439-630): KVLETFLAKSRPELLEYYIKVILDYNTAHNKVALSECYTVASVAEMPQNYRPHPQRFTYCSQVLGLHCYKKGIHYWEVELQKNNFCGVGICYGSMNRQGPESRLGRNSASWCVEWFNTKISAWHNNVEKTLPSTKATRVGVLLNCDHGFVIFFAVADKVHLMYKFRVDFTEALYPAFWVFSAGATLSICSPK

Binder: GUAUAGUUUAAAAGGAGAUAACUAUAC (structured_RNA) [pre-let-7a-1@2]
- Kd (TRIM25 CC-PRY/SPRY [1]): 72 ± 33 nM
- Kd [2]: 16600 ± 2100 nM
- Kd [3]: 17000 ± 11000 nM
- Kd [4]: 124000 ± 28000 nM
- Kd (TRIM25 CC-PRY/SPRY K602E [5]): 2540 ± 120 nM
- Kd [6]: 132000 ± 24000 nM
- Kd [7]: 4190 ± 500 nM
- Kd (TRIM25 CC-PRY/SPRY [8]): 10.2 ± 3.8 nM
- Kd [9]: 606 ± 124 nM
- Kd [10]: 252 ± 61 nM
- Kd [11]: 1320 ± 370 nM
- Kd (TRIM25 CC-PRY/SPRY K602E [12]): 196 ± 22 nM
- Kd [13]: 790 ± 160 nM
- Kd [14]: 484 ± 48 nM
- Kd (TRIM25 PRY/SPRY): 5000 ± 1200 nM
- Kd (TRIM25 CC): 8100 ± 3100 nM
